Holding throughout (experiment): co-IP with anti-FLAG, C-FLAG B3GNT2, mass spectrometry
In assay [1] the target is T1, HNRNPM (human, UniProt P52272 2-730).
T1 construct: also called NP_005959.2 (+1)
T1 sequence (looked up): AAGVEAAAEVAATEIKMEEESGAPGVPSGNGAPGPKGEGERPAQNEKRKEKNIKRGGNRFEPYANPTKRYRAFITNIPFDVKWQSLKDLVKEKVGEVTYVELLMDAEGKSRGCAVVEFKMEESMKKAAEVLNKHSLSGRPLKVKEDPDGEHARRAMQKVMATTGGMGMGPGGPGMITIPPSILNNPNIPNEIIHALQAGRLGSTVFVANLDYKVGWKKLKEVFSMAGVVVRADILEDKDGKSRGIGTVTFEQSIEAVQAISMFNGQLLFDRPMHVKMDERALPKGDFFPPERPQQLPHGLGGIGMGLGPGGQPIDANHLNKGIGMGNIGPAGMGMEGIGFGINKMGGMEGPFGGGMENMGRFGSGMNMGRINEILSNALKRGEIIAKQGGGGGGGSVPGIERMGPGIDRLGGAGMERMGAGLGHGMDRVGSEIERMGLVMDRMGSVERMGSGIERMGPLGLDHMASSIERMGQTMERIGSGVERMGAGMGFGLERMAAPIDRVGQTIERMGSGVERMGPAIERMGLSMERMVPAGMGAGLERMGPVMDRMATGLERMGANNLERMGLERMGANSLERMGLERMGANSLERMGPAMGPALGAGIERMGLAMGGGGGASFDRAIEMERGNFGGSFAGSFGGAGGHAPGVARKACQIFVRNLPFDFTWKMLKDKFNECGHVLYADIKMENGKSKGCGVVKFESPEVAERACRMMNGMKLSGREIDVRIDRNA
Here is the method:
(§1) Cells were plated in 10-cm cell culture dishes and grown to 60-80% confluency. For each condition, two biological replicates were harvested for co-IP. Cells were washed with PBS and 4 mL of lysis buffer (20 mM HEPES, 1% Triton X-100, 150 mM NaCl, 1 mM EDTA, and 10% glycerol) containing protease inhibitor cocktail was added. Cells were scraped and lysate was incubated at 4° C. under rotary agitation for 1 h. Lysate was centrifuged at 14,000×g for 10 min at 4° C. Supernatant was transferred to a new tube and an aliquot was taken as the input. […] For Western blots, 10 μg/mL Chicken Anti-FLAG (Aves labs ET-DY100) and IgY control (R&D Systems AB-101-C) antibodies were biotinylated (Thermo Fisher Scientific 90407) and added to the respective conditions. Lysates with antibodies were incubated at 4° C. under rotary agitation overnight. For each mL of lysate, 50 μL of Pierce Protein A/G Magnetic Beads (Mass spectrometry; Thermo Fisher Scientific 88803) or Pierce Streptavidin Magnetic Beads (Western blot; Thermo Fisher Scientific 88817) was washed twice with lysis buffer. Lysates with antibodies were added to the beads and incubated at 4° C. under rotary agitation for 4 h. Beads were washed with lysis buffer 3 times and resuspended in lysis buffer for storage.
(§2) Magnetic beads were resuspended in 100 mM Tris pH 7.8, reduced, alkylated and digested with trypsin at 37° ° C. overnight. This solution was subjected to solid phase extraction to concentrate the peptides and remove unwanted reagents followed by injection onto a Shimadzu HPLC with fraction collector. Eight fractions were collected and after concentration were injected on a Waters NanoAcquity HPLC equipped with a self-packed Aeris 3 μm C18 analytical column 0.075 mm by 20 cm, (Phenomenex). Peptides were eluted using standard reverse-phase gradients. The effluent from the column was analyzed using a Thermo Orbitrap Elite mass spectrometer (nanospray configuration) operated in a data dependent manner for 54 minutes. The resulting fragmentation spectra were correlated against the known database using Proteome Discover 1.4 (Thermo Fisher Scientific).

Assay [2] concerns the target T2, CHCHD3 (human, UniProt Q9NX63 2-227, limits assumed).
T2 construct: also called NP_001304106.1 (+1)
T2 sequence (looked up): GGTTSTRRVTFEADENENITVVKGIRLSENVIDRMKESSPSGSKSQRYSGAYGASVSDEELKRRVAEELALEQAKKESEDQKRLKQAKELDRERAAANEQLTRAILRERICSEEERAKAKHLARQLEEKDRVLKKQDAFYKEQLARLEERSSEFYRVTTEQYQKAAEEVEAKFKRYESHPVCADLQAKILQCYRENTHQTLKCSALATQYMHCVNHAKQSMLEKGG
Here is the method:
as §1, §2

For assay [3], the target named is T3, DDX1 (human, UniProt Q92499 1-740).
T3 construct: also called NP_004930.1
T3 sequence (looked up): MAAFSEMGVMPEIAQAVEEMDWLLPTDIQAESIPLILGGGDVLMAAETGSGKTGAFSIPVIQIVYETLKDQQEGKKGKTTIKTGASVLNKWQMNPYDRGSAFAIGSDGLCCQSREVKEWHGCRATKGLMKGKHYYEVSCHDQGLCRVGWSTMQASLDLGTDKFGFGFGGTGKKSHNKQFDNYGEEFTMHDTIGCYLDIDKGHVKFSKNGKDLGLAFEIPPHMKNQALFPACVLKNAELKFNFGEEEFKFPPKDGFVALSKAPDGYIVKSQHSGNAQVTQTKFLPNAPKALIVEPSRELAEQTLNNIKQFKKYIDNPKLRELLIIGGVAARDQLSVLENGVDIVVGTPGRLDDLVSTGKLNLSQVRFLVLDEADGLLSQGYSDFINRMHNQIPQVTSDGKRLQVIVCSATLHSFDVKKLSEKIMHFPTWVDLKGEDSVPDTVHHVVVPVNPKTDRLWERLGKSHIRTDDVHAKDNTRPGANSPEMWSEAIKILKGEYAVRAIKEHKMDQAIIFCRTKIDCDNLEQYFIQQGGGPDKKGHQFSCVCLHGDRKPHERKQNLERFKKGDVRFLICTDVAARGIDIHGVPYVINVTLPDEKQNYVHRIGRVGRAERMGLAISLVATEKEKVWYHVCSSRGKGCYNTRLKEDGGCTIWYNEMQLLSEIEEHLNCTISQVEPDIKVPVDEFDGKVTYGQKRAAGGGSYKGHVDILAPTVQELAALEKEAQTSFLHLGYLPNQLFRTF
Here is the method:
as §1, §2

The target in assay [4] is T4, PSMB5 (human, UniProt P28074 60-263).
T4 construct: also called NP_002788.1
T4 sequence (P28074 60-263 limits assumed): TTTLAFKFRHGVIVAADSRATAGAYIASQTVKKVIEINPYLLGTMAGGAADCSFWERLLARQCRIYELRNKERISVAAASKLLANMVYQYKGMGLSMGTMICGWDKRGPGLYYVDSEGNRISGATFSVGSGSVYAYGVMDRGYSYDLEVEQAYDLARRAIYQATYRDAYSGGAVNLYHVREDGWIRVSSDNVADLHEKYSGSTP
Here is the method:
as §1, §2

In assay [5] the target is P0AA25.2 (UniProt P0AA25 2-109 = thioredoxin). Here is the method:
as §1, §2

Chain of P0AA25.2 (P0AA25 2-109, one chain of several): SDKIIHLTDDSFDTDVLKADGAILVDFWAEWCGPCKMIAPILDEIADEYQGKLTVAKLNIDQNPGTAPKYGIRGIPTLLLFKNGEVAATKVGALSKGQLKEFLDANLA

B1: C-terminal FLAG tagged B3GNT2 (enzyme, human, UniProt Q9NY97 1-397, looked up)
chain: MSVGRRRIKLLGILMMANVFIYFIMEVSKSSSQEKNGKGEVIIPKEKFWKISTPPEAYWNREQEKLNRQYNPILSMLTNQTGEAGRLSNISHLNYCEPDLRVTSVVTGFNNLPDRFKDFLLYLRCRNYSLLIDQPDKCAKKPFLLLAIKSLTPHFARRQAIRESWGQESNAGNQTVVRVFLLGQTPPEDNHPDLSDMLKFESEKHQDILMWNYRDTFFNLSLKEVLFLRWVSTSCPDTEFVFKGDDDVFVNTHHILNYLNSLSKTKAKDLFIGDVIHNAGPHRDKKLKYYIPEVVYSGLYPPYAGGGGFLYSGHLALRLYHITDQVHLYPIDDVYTGMCLQKLGLVPEKHKGFRTFDIEEKNKNNICSYVDLMLVHSRKPQEMIDIWSQLQSAHLKC
notes: FLAG-tagged ORF overexpressed in cells; pulled down from lysate with mouse anti-FLAG; also called C-FLAG B3GNT2; C-term flag; not shown: C-terminal FLAG tag
In the case of B1, the results for the “co-IP mass spectrometry count” value in assay [1], in assay [2] and in assay [3] were 8, 15 and 4, respectively.

B2: C-terminal FLAG tagged B3GNT2 (enzyme, human, UniProt Q9NY97 1-397, looked up)
chain: B1 chain
notes: FLAG-tagged ORF overexpressed in A375 cells; pulled down from the lysate with mouse anti-FLAG; also called C-FLAG B3GNT2; C-term flag; not shown: C-terminal FLAG tag
As to B2, the “co-IP/MS count, C-term flag” value stood at 0 in assay [4] and 7 in assay [5].

Source of the values: patent publication US20240261333A1 (published 2024).
